Assay results as given in the supplement of paper PMC10567573.
± gives the standard deviation.

Assay: protein stability index of a GFP-peptide fusion (GPS, HEK-293T) (PSI 1-6); higher = more stable
[1] = treatment: DMSO, c terminus: a fixed tail appended
[2] = treatment: MLN4924 1 uM, 8 h, c terminus: a fixed tail appended
[3] = treatment: DMSO, c terminus: native
[4] = treatment: MLN4924 1 uM, 8 h, c terminus: native
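Further: 24-mer peptide tiles fused after GFP, lentivirally expressed, FACS-sorted into six equal bins by GFP/DsRed ratio, decoded by Illumina sequencing, PSI is the read-weighted mean bin number.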

## LDTVEEVLSVSKILHIPQVTKLCV [KLHL14]
[1]
  protein stability index: 2.35 ± 0.48
[2]
  protein stability index: 2.79 ± 0.43

## SSPSNMLPVRPQTNALIGGPMPMS [CLINT1]
[1]
  protein stability index: 3.85 ± 0.22
[2]
  protein stability index: 3.7 ± 0.25

## LLVSLVTTVVVFVASMVLGECRQM [CLCN6]
[1]
  protein stability index: 3.02 ± 0.73
[2]
  protein stability index: 3 ± 0.94

## WLQKLCCPCCFGRDCLVLNQGYLS [PI4K2A]
[1]
  protein stability index: 2.4 ± 0.45
[2]
  protein stability index: 2 ± 0.24

## HSGYDFGYLIKILTNSNLPEEELD [CNOT7]
[1]
  protein stability index: 2.27 ± 0.19
[2]
  protein stability index: 2.48 ± 0.3

## RQITSPVSGINGDIRAKKIASIAD [HNF4A]
[1]
  protein stability index: 4.1 ± 0.25
[2]
  protein stability index: 4.13 ± 0.2

## PPELNYGATGECQNFLDPGYPLPK [ZNF449]
[1]
  protein stability index: 4.61 ± 0.2
[2]
  protein stability index: 4.67 ± 0.13

## LAKQPGVSVNAQTLDGRTPLHLAA [RIPK4]
[1]
  protein stability index: 3.99 ± 0.76
[2]
  protein stability index: 4.02 ± 0.087

## HKRAIMPYGVYKKQQKDPSEEAAV [ATE1]
[1]
  protein stability index: 4.3 ± 0.32
[2]
  protein stability index: 4.44 ± 0.11

## ADWWQEPDAKGDEAEAEPEPELA [P3H4]
[3]
  protein stability index: 5.67 ± 0.21
[4]
  protein stability index: 5.42 ± 0.31

## SLKRHLKTHTGEKPHRCHNCGKSF [ZNF449]
[1]
  protein stability index: 2.91 ± 0.56
[2]
  protein stability index: 2.97 ± 0.15

## AACLLQLKGVKQACCEFLESQLDP [KLHL12]
[1]
  protein stability index: 2.97 ± 0.45
[2]
  protein stability index: 2.88 ± 0.33

## GNQESKLIILASGGPQALVNIMRT [CTNNB1]
[1]
  protein stability index: 2.21 ± 0.57
[2]
  protein stability index: 2.26 ± 0.69

## LANHTGYIKVDWQRVEKDMKKAKE [FUNDC2]
[1]
  protein stability index: 4.11 ± 0.21
[2]
  protein stability index: 4.08 ± 0.19

## VASYILASHNGISYKDLDVIFGVE [TENT5D]
[1]
  protein stability index: 2.93 ± 0.85
[2]
  protein stability index: 2.89 ± 1.4

## GAQPCLLLPIVPLSWLVWLLLLLL [ADAMTS4]
[2]
  protein stability index: 2.67 ± 1.3

## EVVPIHGRGNFPTLEITLKDIVQT [TENT5C]
[1]
  protein stability index: 3.5 ± 0.31
[2]
  protein stability index: 3.39 ± 0.27

## RVAEVSRVRVELQEQNGRLQAELA [LRRC45]
[1]
  protein stability index: 4.11 ± 0.3
[2]
  protein stability index: 4.19 ± 0.13

## AGKEAMTSDGYTALHLAARNGHLA [RIPK4]
[1]
  protein stability index: 3.43 ± 0.69
[2]
  protein stability index: 3.85 ± 0.36

## KPDGSRHQDVPSQDDSKPTQRQFT [AASDHPPT]
[1]
  protein stability index: 5.44 ± 0.14
[2]
  protein stability index: 5.353 ± 0.026

## TDSEHSDAEVSCTDNGTFNLSRGQ [RETREG3]
[1]
  protein stability index: 5.24 ± 0.22
[2]
  protein stability index: 5.28 ± 0.22

## RAALISRRHLQFWKSHLRNVQRPL [RHOBTB2]
[1]
  protein stability index: 2.56 ± 0.13
[2]
  protein stability index: 2.56 ± 0.22

## KLQREMERREALCRQLSESESSLE [CCDC6]
[1]
  protein stability index: 4.68 ± 0.18
[2]
  protein stability index: 4.85 ± 0.16

## QKEDVKPYQVNGVNPAYPESRYTS [ETS1]
[1]
  protein stability index: 4.53 ± 0.18
[2]
  protein stability index: 4.48 ± 0.15

## NESTVCLMSYERRQILHLITMMAL [TENT5D]
[1]
  protein stability index: 2.3 ± 0.47
[2]
  protein stability index: 2.1 ± 0.2

## EVSLDSLDLRVKGILSSQAEGLAN [EHMT1]
[1]
  protein stability index: 4.18 ± 0.19
[2]
  protein stability index: 4.05 ± 0.42

## LECEINTYRSLLESEDCKLPSNPC [KRT33B]
[1]
  protein stability index: 4.07 ± 0.11
[2]
  protein stability index: 4.25 ± 0.23

## AIDLNKKGKDNKHPMYRRLVHSAV [ZMYND11]
[1]
  protein stability index: 2.46 ± 0.41
[2]
  protein stability index: 2.92 ± 0.38

## FTLNFFRSGIQFGSWGSFQLPGLL [CLCN6]
[1]
  protein stability index: 2.93 ± 0.36
[2]
  protein stability index: 3.02 ± 0.97

## SPCLPEAEAMFAINADGVGDAKD [RAD51]
[3]
  protein stability index: 5.38 ± 0.16
[4]
  protein stability index: 5.34 ± 0.14

## SGMTEVERTYSANCSDFLESKGCF [SPATS1]
[1]
  protein stability index: 3.62 ± 0.24
[2]
  protein stability index: 3.62 ± 0.43

## SAAPGHPQDGSYPRQADHDDHECC [KCNA1]
[1]
  protein stability index: 5.39 ± 0.4
[2]
  protein stability index: 5.6 ± 0.1

## SDVLIGDILVLLGASLYAISNVCE [SLC35F2]
[1]
  protein stability index: 2.79 ± 0.28
[2]
  protein stability index: 3.36 ± 0.67

## PRKTAAPVNALVSHLLVVEPEKLY [ESRRA]
[1]
  protein stability index: 2.83 ± 0.22
[2]
  protein stability index: 2.5 ± 0.18

## ERETEATRGRGGLLRDHIPRGKEE [MOG]
[1]
  protein stability index: 5.38 ± 0.38
[2]
  protein stability index: 5.18 ± 0.41

## NYLVRLSFHNLKFDCSTANKIFLR [ZNF277]
[1]
  protein stability index: 2.46 ± 0.4
[2]
  protein stability index: 2.55 ± 0.25

## SGGQTSWDSGCLAPPSTRTSHSLP [PLEKHN1]
[1]
  protein stability index: 4.1 ± 0.068
[2]
  protein stability index: 3.98 ± 0.21

## ALLITLIVVATLPIPVVFVLRHFH [SLC6A17]
[1]
  protein stability index: 2.73 ± 0.52
[2]
  protein stability index: 2.33 ± 0.45

## DKERFTTLVQDLANAFQQEAQTSG [CHIT1]
[1]
  protein stability index: 4.19 ± 0.066
[2]
  protein stability index: 4.26 ± 0.12

## VTPAQNNLLQPNFEAAFGTTPSTS [SNAP91]
[1]
  protein stability index: 4.52 ± 0.13
[2]
  protein stability index: 4.62 ± 0.14

## TVIFYGADSEQADIARMLYKDTCH [ZMYND11]
[1]
  protein stability index: 2.28 ± 0.17
[2]
  protein stability index: 2.68 ± 0.4

## TFIPLEPLPQIPNLPFWVKEKANS [SPATS1]
[1]
  protein stability index: 2.81 ± 0.19
[2]
  protein stability index: 3.04 ± 0.15

## GSYGVVFKCRNKTSGQVVAVKKFV [CDKL4]
[1]
  protein stability index: 2.02 ± 0.48
[2]
  protein stability index: 2.16 ± 0.46

## TTALLHYQLPQMPDVVVRSFMTWL [MED27]
[1]
  protein stability index: 2.59 ± 0.32
[2]
  protein stability index: 2.62 ± 0.3

## EASRLNIERMKQIYQQLSRYRGLG [CRY1]
[1]
  protein stability index: 2.48 ± 0.26
[2]
  protein stability index: 2.37 ± 0.3
